Assay in all cases: ITC; FITC-CSTN-WD2 peptide as titrant (380 uM) into wild-type or mutant KLC2^TPR-myc (44-50 uM) in the cell; 25 C; 0.1 M NaCl, 25 mM HEPES, 1 mM TCEP, pH 7.5; 2-3 experiments globally fitted with the model A + B -> AB; apparent stoichiometry Napp
(Isothermal titration calorimetry measures the heat released or taken up as one component is titrated into another.)

Test [1] deals with KLC2^TPR-myc Tyr^208Ala mutant (mouse) (UniProt O88448).
For test [2], the target named is KLC2^TPR-myc (kinesin light chain 2 TPR domain, wild type, C-terminal myc tag) (mouse) (UniProt O88448).
The target of test [3] is KLC2^TPR-myc Thr^200Asp mutant (mouse) (UniProt O88448).

*: point of attachment. FITC = O=C1OC2(c3ccc(O)cc3Oc3cc(O)ccc32)c2ccc(NC(=S)*)cc21

With {FITC}-TRQLEWDDSTL-OH [FITC-labeled CSTN(WD2) peptide (FITC-…-COOH)], the results for the Ka in test [1], in test [2] and in test [3] were 541000 M⁻¹, 820000 M⁻¹ and 845000 M⁻¹, respectively. Further, the stoichiometry N (in general, the number of molecules, sites or subunits per partner or assembly) was found to be 0.67 in test [1], 0.67 in test [2] and 0.71 in test [3].
